± gives the uncertainty stated by the source.
Experiment: self-splicing fitness, log relative to wild type (ln ratio); higher = more splicing; Tetrahymena group I intron in knt gene, E. coli kanamycin selection, DiMSum; sequences stand for … in CUCUCU…GGAGGGAAAAGUUAUCAGGCAUGCACCUGGUAGCUAGUCUUUAAACCAAUAGAUUGCAUCGGUUUAAAAGGCAAGACCGUCAAAUUGCGGGAAAGGGGUCAACAGCCGUUCAGUACCAAGUCUCAGGGGAAACUUUGAGAUGGCCUUGCAAAGGGUAUGGUAAUAAGCUGACGGACAUGGUCCUAACCACGCAGCCAAGUCCUAAGUCAACAGAUCUUCUGUUGAUAUGGAUGCAGUUCACAGACUAAAUGUCGGUCGGGGAAGAUGUAUUCUUCUCAUAAGAUAUAGUCGGACCUCUCCUUAAUGGGAGCUAGCGGAUGAAGUGAUGCAACACUGGAGCCGCUGGGAACUAAUUUGUAUGCGAAAGUAUAUUGAUUAGUUUUGGAGUACUCGUGGUCG
Procedure, shortened: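 The eight P1ex-region nucleotides of an intron in the knt kanamycin-resistance gene on pET-22b(+) were all randomised and the library put into E. coli BL21(DE3). Six replicate transformations were grown overnight at 37°C or 30°C on LB agar with or without 25 μg/mL kanamycin, together with 100 μg/mL carbenicillin, 50 μM IPTG and 0.2% rhamnose. Colonies were pooled and amplicon-sequenced on an Illumina HiSeq 2500. Fitness from DiMSum is the error-weighted combination of wild-type-normalised replicate fold changes, kanamycin over none.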

| Sequence | self-splicing fitness (ln) (30 °C) | self-splicing fitness (ln) (37 °C) |
| --- | --- | --- |
| GCUCAGCAAUAUUACGAGCA | -2.63 ± 0.16 | -1.09 ± 0.11 |
| GCUCAGCAAUAUUACGAUCU | -0.418 ± 0.094 | -0.185 ± 0.099 |
| GCUCAGCAAUAUUACGCGGA | -2.01 ± 0.26 | -2.63 ± 0.28 |
| GCUCAGCAAUAUUACGCUCA | -1.59 ± 0.11 | -0.171 ± 0.11 |
| GCUCAGCAAUAUUACGGAUA | -1.34 ± 0.12 | -0.254 ± 0.1 |
| GCUCAGCAAUAUUACGGAUG | -1.76 ± 0.094 | -1.12 ± 0.12 |
| GCUCAGCAAUAUUACGGCGG | -3.09 ± 0.29 | -1.46 ± 0.29 |
| GCUCAGCAAUAUUACGUAGG | 0.139 ± 0.052 | 0.32 ± 0.076 |
| GCUCAGCAAUAUUACGUCCG | -1.49 ± 0.14 | -1.13 ± 0.18 |
| GCUCAGCAAUAUUACGUCCU | -1.16 ± 0.11 | -0.818 ± 0.14 |
| GCUCAGCAAUAUUACGUGAA | -0.113 ± 0.063 | 0.231 ± 0.077 |
| GCUCAGCAAUAUUACGUGAU | -0.424 ± 0.072 | -0.373 ± 0.078 |
| GCUCAGCAAUAUUACGUUGA | -3.15 ± 0.18 | -2.42 ± 0.2 |
| GCUGAGCAAUAUUACGACUU | -1.64 ± 0.14 | 0.471 ± 0.14 |
| GCUGAGCAAUAUUACGAGAC | -3.06 ± 0.36 | 0.142 ± 0.23 |
| GCUGAGCAAUAUUACGAUCU | -1.69 ± 0.094 | -1.05 ± 0.1 |
| GCUGAGCAAUAUUACGAUGG | -2.25 ± 0.17 | -0.805 ± 0.12 |
| GCUGAGCAAUAUUACGAUGU | -2.49 ± 0.1 | -0.739 ± 0.12 |
| GCUGAGCAAUAUUACGAUUG | -4.26 ± 0.32 | -3.02 ± 0.22 |
| GCUGAGCAAUAUUACGCCGG | -1.99 ± 0.36 |  |
| GCUGAGCAAUAUUACGCCUU | -1.98 ± 0.31 | -1.48 ± 0.44 |
| GCUGAGCAAUAUUACGCGCG | -0.818 ± 0.16 | -0.503 ± 0.19 |
| GCUGAGCAAUAUUACGCGCU | -3.05 ± 0.31 | -1.53 ± 0.36 |
| GCUGAGCAAUAUUACGCUCA |  | -2.75 ± 0.48 |
| GCUGAGCAAUAUUACGCUUG | -3.25 ± 0.29 | -1.57 ± 0.29 |
| GCUGAGCAAUAUUACGGAAG | -2.41 ± 0.24 | -0.395 ± 0.17 |

| Sequence | self-splicing fitness (ln) (30 °C) | self-splicing fitness (ln) (37 °C) |
| --- | --- | --- |
| GCUGAGCAAUAUUACGGAGC | -3.49 ± 0.18 | -1.7 ± 0.16 |
| GCUGAGCAAUAUUACGGAGG | -3.67 ± 0.38 | -1.14 ± 0.38 |
| GCUGAGCAAUAUUACGGCUA | -2.46 ± 0.19 | -1.66 ± 0.19 |
| GCUGAGCAAUAUUACGGGGU |  | -2.36 ± 0.28 |
| GCUGAGCAAUAUUACGGUGA | -1.35 ± 0.17 | -0.217 ± 0.17 |
| GCUGAGCAAUAUUACGUCGU | -2.05 ± 0.097 | -1.52 ± 0.12 |
| GCUGAGCAAUAUUACGUGCC | -3.37 ± 0.34 |  |
| GCUGAGCAAUAUUACGUUAU | -2.96 ± 0.25 | -2.33 ± 0.28 |
| GCUGAGCAAUAUUACGUUGA | -2.57 ± 0.22 | -2.61 ± 0.22 |
| GCUUAGCAAUAUUACGACAA | -1.02 ± 0.14 | -0.462 ± 0.19 |
| GCUUAGCAAUAUUACGACGC | -0.0232 ± 0.13 | -0.351 ± 0.16 |
| GCUUAGCAAUAUUACGAGCA | -2.24 ± 0.14 | -0.963 ± 0.13 |
| GCUUAGCAAUAUUACGAGGG | -1.83 ± 0.11 | -1.36 ± 0.11 |
| GCUUAGCAAUAUUACGCAUC | -1.04 ± 0.069 | -0.56 ± 0.091 |
| GCUUAGCAAUAUUACGCAUU | -0.542 ± 0.095 | -0.78 ± 0.12 |
| GCUUAGCAAUAUUACGCCGA | -2.42 ± 0.23 | -1.87 ± 0.27 |
| GCUUAGCAAUAUUACGCGCC | -1.62 ± 0.45 |  |
| GCUUAGCAAUAUUACGCUGC | -3.09 ± 0.35 | -2.38 ± 0.42 |
| GCUUAGCAAUAUUACGGCGC | -0.263 ± 0.14 | 0.127 ± 0.16 |
| GCUUAGCAAUAUUACGGUCA | -1.04 ± 0.13 | -0.448 ± 0.14 |
| GCUUAGCAAUAUUACGGUGC | -1.98 ± 0.12 | -0.681 ± 0.15 |
| GCUUAGCAAUAUUACGGUGU | -0.596 ± 0.052 | -0.0556 ± 0.068 |
| GCUUAGCAAUAUUACGUCGA | -1.67 ± 0.088 | -0.777 ± 0.11 |
| GCUUAGCAAUAUUACGUCUA | -1.96 ± 0.26 | -0.873 ± 0.2 |
| GCUUAGCAAUAUUACGUGGC | -3.12 ± 0.22 | -1.44 ± 0.4 |
| GGAAAGCAAUAUUACGAAAA | -1.04 ± 0.48 |  |

| Sequence | self-splicing fitness (ln) (30 °C) | self-splicing fitness (ln) (37 °C) |
| --- | --- | --- |
| GGAAAGCAAUAUUACGAAGC | -1.07 ± 0.34 | -1.43 ± 0.34 |
| GGAAAGCAAUAUUACGACCA | -0.87 ± 0.11 | -0.318 ± 0.14 |
| GGAAAGCAAUAUUACGACGU | -0.135 ± 0.097 | 0.068 ± 0.1 |
| GGAAAGCAAUAUUACGAGCG | -0.482 ± 0.12 | 0.397 ± 0.12 |
| GGAAAGCAAUAUUACGAUUA | -0.527 ± 0.16 | 0.788 ± 0.16 |
| GGAAAGCAAUAUUACGCCGA | -0.608 ± 0.34 | -0.354 ± 0.24 |
| GGAAAGCAAUAUUACGCGAA | -1.66 ± 0.17 | -1.19 ± 0.13 |
| GGAAAGCAAUAUUACGCGGC | -2.98 ± 0.41 | -2.03 ± 0.45 |
| GGAAAGCAAUAUUACGCUGA | -2.94 ± 0.22 | -1.9 ± 0.16 |
| GGAAAGCAAUAUUACGCUGG | -2.2 ± 0.14 | -2.81 ± 0.26 |
| GGAAAGCAAUAUUACGCUUG | -2.12 ± 0.14 | -1.15 ± 0.21 |
| GGAAAGCAAUAUUACGGAUC | -0.0161 ± 0.075 | 0.0803 ± 0.09 |
| GGAAAGCAAUAUUACGGCCG | -0.751 ± 0.12 | -0.566 ± 0.16 |
| GGAAAGCAAUAUUACGGGAG | -3.54 ± 0.28 | -1.83 ± 0.19 |
| GGAAAGCAAUAUUACGGGCA | -1.2 ± 0.14 | -1.15 ± 0.18 |
| GGAAAGCAAUAUUACGGGUC | -3.66 ± 0.24 | -1.92 ± 0.14 |
| GGAAAGCAAUAUUACGGUAG | -3.02 ± 0.2 | -2.98 ± 0.18 |
| GGAAAGCAAUAUUACGGUCC | -2.06 ± 0.25 |  |
| GGAAAGCAAUAUUACGUACA | -0.523 ± 0.14 | 6.9e-05 ± 0.15 |
| GGAAAGCAAUAUUACGUCAC | -2.13 ± 0.22 | -1.81 ± 0.32 |
| GGAAAGCAAUAUUACGUCGA | -1.84 ± 0.092 | -0.528 ± 0.12 |
| GGAAAGCAAUAUUACGUGAC | -2.97 ± 0.19 | -1.94 ± 0.24 |
| GGAAAGCAAUAUUACGUUAG | -3.14 ± 0.16 | -1.9 ± 0.15 |
| GGACAGCAAUAUUACGAAGC | -0.729 ± 0.079 | 0.158 ± 0.097 |
| GGACAGCAAUAUUACGAAGU | -1.34 ± 0.14 | -0.422 ± 0.14 |
